Data set [1] concerns the target T1, FjGH65A (Flavobacterium johnsoniae, UniProt A5FBJ5, E616Q).
T1 construct: gene Fjoh_4428; residues 24-681, signal peptide removed, N-terminal His6 tag (pET28a), E. coli BL21(DE3); hexamer (433 kDa by gel filtration)
The experiment in a line: hydrolysis activity. In kind it is biochemical. As to conditions: general base catalyst mutant.

For data set [2], the target named is T2, FjGH65A (Flavobacterium johnsoniae, UniProt A5FBJ5, E472Q).
T2 construct: gene Fjoh_4428; residues 24-681, signal peptide removed, N-terminal His6 tag (pET28a), E. coli BL21(DE3); hexamer (433 kDa by gel filtration)
T2 sequence (A5FBJ5 24-681 E472Q): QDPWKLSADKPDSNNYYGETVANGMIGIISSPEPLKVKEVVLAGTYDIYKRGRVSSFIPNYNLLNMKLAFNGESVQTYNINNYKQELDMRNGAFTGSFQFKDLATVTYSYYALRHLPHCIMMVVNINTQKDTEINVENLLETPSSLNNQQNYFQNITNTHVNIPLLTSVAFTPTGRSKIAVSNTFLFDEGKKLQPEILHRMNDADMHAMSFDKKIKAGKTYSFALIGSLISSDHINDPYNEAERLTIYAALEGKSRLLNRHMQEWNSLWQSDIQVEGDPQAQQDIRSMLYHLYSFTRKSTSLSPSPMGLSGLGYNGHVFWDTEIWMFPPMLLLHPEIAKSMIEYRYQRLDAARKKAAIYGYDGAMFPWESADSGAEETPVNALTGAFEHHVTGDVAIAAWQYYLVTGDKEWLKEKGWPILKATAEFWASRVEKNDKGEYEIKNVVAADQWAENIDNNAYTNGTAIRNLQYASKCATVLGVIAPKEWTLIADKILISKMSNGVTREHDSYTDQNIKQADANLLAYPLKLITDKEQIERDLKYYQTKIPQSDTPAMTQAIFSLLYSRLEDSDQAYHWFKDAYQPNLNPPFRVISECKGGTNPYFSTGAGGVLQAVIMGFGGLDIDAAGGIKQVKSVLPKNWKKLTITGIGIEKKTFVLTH
The experiment in a line: hydrolysis activity. The format is biochemical. As to conditions: general acid catalyst mutant.

The target in data set [3] is T3, FjGH65A (Flavobacterium johnsoniae, UniProt A5FBJ5).
T3 construct: gene Fjoh_4428; residues 24-681, signal peptide removed, N-terminal His6 tag (pET28a), E. coli BL21(DE3); hexamer (433 kDa by gel filtration)
The experiment in a line: X-ray crystal structure of the complex, […] Å. In kind it is binding. As to conditions: crystal cryoprotected with 30% (w/v) glucose; four sites: subsites -1, +1, +2 and linker region.

Data set [4] addresses FjGH65A (Fjoh_4428), GH65 α-1,2-glucosidase from Flavobacterium johnsoniae (Flavobacterium johnsoniae). The experiment in a line: SEC; gel filtration on HiPrep 16/60 Sephacryl S-200 HR, 20 mM sodium citrate buffer (pH 6.0) with 150 mM NaCl; column calibrated with thyroglobulin, ferritin, aldolase, conalbumin and ovalbumin. For orientation: SEC sorts molecules by how far they enter the pores of the column.

Data set [5] shares this target. The experiment in a line: crystal structure; space group C2, three monomers (MolA, MolB, MolC) in the asymmetric unit; hexamer by the crystallographic two-fold axis, PISA analysis; native 1.54 Å and glucose complex 1.40 Å.
Substrate in data set [6]: OC[C@H]1O[C@H](F)[C@H](O)[C@@H](O)[C@@H]1O
The experiment in a line: hydrolysis kinetics (assay details for this substrate not stated). The format is biochemical, Flavobacterium johnsoniae. The note with it: kinetic conditions for this substrate not stated. An excerpt: hydrolysis kinetics (assay details for this substrate not stated) on FjGH65A

T1 sequence (A5FBJ5 24-681 E616Q): as the sequence (A5FBJ5 24-681 E472Q) above, with Q449E, E593Q counted along it

For the molecule `OC[C@H]1O[C@H](O[C@H]2C(O)O[C@H](CO)[C@@H](O)[C@@H]2O)[C@H](O)[C@@H](O)[C@@H]1O` (mixture of isomers) [Kojibiose], the “activity (% of wild type)” value at FjGH65A [1] and at FjGH65A [2] was under 0.1% each time.

With `OC[C@H]1O[C@@H](O)[C@H](O)[C@@H](O)[C@@H]1O` [β-glucose], the “X-ray crystal structure of the complex, 1.40 Å” value at FjGH65A [3] is “Each monomer of FjGH65A binds four β-glucose molecules”.

By stoichiometry N is commonly meant a count of units in the complex or per binding partner. In the case of “FjGH65A (Fjoh_4428), GH65 α-1,2-glucosidase from Flavobacterium johnsoniae (enzyme)”, the stoichiometry N in data set [4] and in data set [5] was 6 throughout.

B1: FjGH65A (Flavobacterium johnsoniae UW101) (protein)
chain: QDPWKLSADKPDSNNYYGETVANGMIGIISSPEPLKVKEVVLAGTYDIYKRGRVSSFIPNYNLLNMKLAFNGESVQTYNINNYKQELDMRNGAFTGSFQFKDLATVTYSYYALRHLPHCIMMVVNINTQKDTEINVENLLETPSSLNNQQNYFQNITNTHVNIPLLTSVAFTPTGRSKIAVSNTFLFDEGKKLQPEILHRMNDADMHAMSFDKKIKAGKTYSFALIGSLISSDHINDPYNEAERLTIYAALEGKSRLLNRHMQEWNSLWQSDIQVEGDPQAQQDIRSMLYHLYSFTRKSTSLSPSPMGLSGLGYNGHVFWDTEIWMFPPMLLLHPEIAKSMIEYRYQRLDAARKKAAIYGYDGAMFPWESADSGAEETPVNALTGAFEHHVTGDVAIAAWQYYLVTGDKEWLKEKGWPILKATAEFWASRVEKNDKGEYEIKNVVAADEWAENIDNNAYTNGTAIRNLQYASKCATVLGVIAPKEWTLIADKILISKMSNGVTREHDSYTDQNIKQADANLLAYPLKLITDKEQIERDLKYYQTKIPQSDTPAMTQAIFSLLYSRLEDSDQAYHWFKDAYQPNLNPPFRVISECKGGTNPYFSTGAGGVLQAVIMGFGGLDIDAAGGIKQVKSVLPKNWKKLTITGIGIEKKTFVLTH
notes: residues 24-681, signal peptide removed, N-terminal His6 tag (pET28a), E. coli BL21(DE3); hexamer (433 kDa by gel filtration)
As usually defined, the Km is the concentration of substrate that gives half-maximal velocity. As a reminder, the kcat is the maximal rate divided by the concentration of active sites. As a reminder, the kcat/Km is the second-order rate constant that governs catalysis at low substrate concentration. Take B1: in data set [6], the Km came to 3.1 ± 0.2 mM, the kcat stood at 56.1 ± 1.8 s⁻¹ and the kcat/Km is 18100 M⁻¹ s⁻¹.

Source of the values: PMC8626586, “Structure of a bacterial α-1,2-glucosidase defines mechanisms of hydrolysis and substrate specificity in GH65 family hydrolases” (The Journal of Biological Chemistry, 2021).
